What was measured:
[1] = tested on: Gal3 peptides (SEQ ID NOs: 3-26); assay: Gal3 peptide library binding ELISA (epitope mapping); design: species or system human
Protocol: (§1) To identify the epitopes to which Gal3 antibodies with and without Gal3-INSR blocking activity bound, a library of 24 amino acid peptides representing portions of Gal3, depicted in FIG. 27, was produced and the ability of each peptide to bind Gal3 antibodies was evaluated by ELISA. At least 2 μg/ml of hGal3 peptide in 50 μl of PBS or 0.1 μg/ml of full-length human Gal3 protein (GenScript) and human Galectin-3 protein (Acro Biosystems, GA3-H5129) were diluted in PBS (Corning, 21-030-CM) to concentrations of at least 2 μg/ml or 0.1 μg/ml, respectively, and added to the wells of a 96-well ELISA plate (Thermo Fisher, 44-2404-21). After incubating the plate at 4° C. overnight, the plate was washed three times with PBST (PBS with 0.05% Tween 20 [VWR, 0777]). The plate was then blocked for an hour with 2% BSA (EMD Millipore, 126609) in PBST at room temperature with gentle rocking. Thereafter, the 2% BSA in PBST was discarded and human Galectin-3 hybridoma supernatants or antibodies were diluted in 2% BSA in PBST to concentrations of at least 0.1 μg/ml and added to the wells. The plate was incubated for an hour at room temperature with gentle rocking and then washed three times with PBST. Afterwards, Goat Anti-Mouse IgG-HRP (Jackson ImmunoResearch, 115-036-1461) or Goat Anti-Rat IgG HRP (Abcam, ab205720) diluted in 2% BSA in PBST (1:4000) were added to the wells. The plate was incubated for 30 minutes to 1 hour at room temperature with gentle rocking and then washed three times with PBST. TMB substrate (Thermo Scientific, 34029) was then added to each well. The reaction was stopped with 1M HCl (JT Baker, 5620-02) and read using a plate reader (Molecular Devices) at absorbance of 450 nm.
(§2) Human Gal3 peptides (LifeTein, custom order) and human Gal3 proteins (R&D Systems, 8259-GA; TrueBinding, QCB200349) were diluted in PBS (Corning, 21-030-CM) to concentrations of at least 100 μg/mL (peptides) or 1 μg/mL (proteins), and added to the wells of several 96-well ELISA plates (Thermo Fisher, 44-2404-21). After incubating the plates at 4° C. overnight, the plates were washed three times with PBST (PBS with 0.05% Tween 20 [VWR, 0777]). The plates were then blocked for an hour with 2% BSA (EMD Millipore, 126609) in PBST at room temperature with gentle rocking. Thereafter, the 2% BSA in PBST was discarded and Gal3-binding antibodies (reformatted hIgG4 [S228P]) were diluted in 2% BSA in PBST to concentrations of 5 μg/mL and added to the wells. The plates were incubated for an hour at room temperature with gentle rocking and then washed three times with PBST. Afterwards, Peroxidase AffiniPure F(ab′)2 Fragment Goat Anti-Human IgG (H+L) polyclonal antibody (Jackson ImmunoResearch, 109-036-003), was diluted in 2% BSA in PBST (1:4000) and added to the wells. The plates were incubated for 1 hour at room temperature with gentle rocking and then washed three times with PBST. TMB substrate (Thermo Scientific, 34029) was then added to each well. The reaction was stopped with 1M HCl (JT Baker, 5620-02) and read using a plate reader (Molecular Devices) at absorbance of 450 nm.

[2] = target: T1, Gal3 peptides (SEQ ID NOs: 3-26) (Homo sapiens, UniProt P17931); assay: as above; conditions: for binding to Gal3 Peptide 1: Peptide 1 (SEQ ID NO: 3), amino acids 1-20 of Gal3; for binding to Gal3 Peptide 7: Peptide 7 (SEQ ID NO: 9), amino acids 61-80 of Gal3; for binding to Gal3 Peptide 6: Peptide 6 (SEQ ID NO: 8), amino acids 51-70 of Gal3
T1 construct: a library of 24 amino acid peptides representing portions of Gal3; purchased LifeTein custom order
Protocol: as §1, §2

human Gal3 = target: T2, human Gal3 (Homo sapiens, UniProt P17931); assay: Antibody binning assays (competition for binding to Gal3); conditions: binning per Examples 3 and 18
T2 construct: His; purchased AcroBio GA3-H5129
T2 sequence (P17931 whole entry): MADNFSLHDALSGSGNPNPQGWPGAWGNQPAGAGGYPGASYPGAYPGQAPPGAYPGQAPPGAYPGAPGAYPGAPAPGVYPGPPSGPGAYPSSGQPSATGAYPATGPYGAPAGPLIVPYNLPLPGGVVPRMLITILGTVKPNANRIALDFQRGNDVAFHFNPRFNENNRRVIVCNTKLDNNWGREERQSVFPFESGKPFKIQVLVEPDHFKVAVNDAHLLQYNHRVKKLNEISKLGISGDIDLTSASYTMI
Protocol: To determine whether Gal3-binding antibodies with Gal3-INSR blocking activity bind to the same or overlapping regions of the Gal3 molecule, antibody binning assays were performed to assess the ability of antibodies to simultaneously bind Gal3. Amine-reactive probes were loaded onto a Gator biosensor (Probe Life, Palo Alto, Calif.), equilibrated in dH20 for 60 seconds, dipped into 100 μl EDC 0.2M/NHS 0.05M activation buffer for 30 seconds, then dipped into a solution of […] human Gal3-His in 10 mM NaOAc buffer, pH 5 until binding was saturated, and quenched in 1 M ethanolamine pH 8.5 for 300 seconds. Following Gal3-His loading, tips were dipped in 20 μg/mL saturating antibody, then successively dipped into 5 μg/mL competing antibody.
The epitope binning assay was done in a sandwich format on the high-throughput SPR-based Carterra LSA unit (CarterraBio, Salt Lake City, Utah). First, the purified antibodies were diluted to 10 μg/ml concentration in 10 mM NaOAc (pH 5.0) and then were covalently coupled via amine group to HC200M chip activated by EDC and S-NHS to immobilize antibodies to different positions of a 384-spot array. One hundred thirty-eight binning cycles were run on the array of immobilized antibodies. In each cycle, first, human Gal3 (AcroBio GA3-H5129) was injected over the entire array to bind to different antibodies (primary antibody), followed by one antibody (secondary antibody) selected among the panel of 150 anti-GAL3 antibodies tested. At the end of each cycle, the array was regenerated by 10 mM Glycine (pH 2.0) to remove bound antigen and secondary antibody from the array. The data analysis was done using the Epitope software by CarterraBio.

[3] = target: T3, interaction of Gal3 and INSR (Homo sapiens, UniProt P17931); assay: ELISA of blocking of Gal3-INSR association by Gal3-binding antibodies
T3 construct: 6-histidine tag (linker-spaced); purchased Acro Biosystems (Gal3); Sino Biological (INSR) GA3-H5129; 11086-H08H
T3 sequence (P17931 2-250 limits assumed): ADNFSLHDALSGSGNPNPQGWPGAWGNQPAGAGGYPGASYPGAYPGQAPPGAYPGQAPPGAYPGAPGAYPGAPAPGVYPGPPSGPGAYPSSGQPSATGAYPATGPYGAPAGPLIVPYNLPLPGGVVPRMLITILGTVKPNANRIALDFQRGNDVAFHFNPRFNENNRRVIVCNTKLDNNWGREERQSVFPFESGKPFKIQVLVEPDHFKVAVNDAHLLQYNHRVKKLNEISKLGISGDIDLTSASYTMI
Protocol: Positively scoring wells were evaluated for the ability to block association of Gal3 and INSR. To identify Gal3-targeted antibodies with the ability to block the interaction of Gal3 and INSR, purified Gal3 and INSR proteins were incubated in the presence of Gal3-immunization hybridoma supernatants described above, or without antibody, and protein interaction was evaluated by ELISA. Human Galectin-3 protein (Acro Biosystems, GA3-H5129) was diluted in PBS (Corning, 21-030-CM) to a concentration of 3 μg/ml and added to the wells of a 96-well ELISA plate (Thermo Fisher, 44-2404-21). After incubating the plate at 4° C. overnight, the plate was washed three times with PBST (PBS with 0.05% Tween 20 [VWR, 0777]). The plate was then blocked for an hour with 2% BSA (EMD Millipore, 126609) in PBST at room temperature with gentle rocking. Thereafter, the 2% BSA in PBST was discarded and antibody or inhibitor (3-fold dilutions beginning at 20 μg/ml, 60 μg/ml, or 180 μM) in 2% BSA in PBST was added to the wells. Afterwards, 6 μg/ml of human Insulin Receptor (Sino Biological, 11086-H08H) in 2% BSA in PBST was added to the antibody or inhibitor in the wells in a 1:1 ratio. The plate was incubated for an hour at room temperature with gentle rocking. Thereafter, the plate was washed three times with PBST, and 0.3 μg/ml of human INSR Biotinylated Antibody (R&D Systems, BAF1544) in 2% BSA in PBST was added to the wells. The plate was incubated for an hour with gentle rocking and then washed three times with PBST. Avidin-HRP (1:2000) was then added to the wells. The plate was incubated at room temperature for an hour with gentle rocking and then washed three times with PBST. TMB substrate (Thermo Scientific, 34029) was then added to each well. The reaction was stopped with 1M HCl (JT Baker, 5620-02) and read using a plate reader (Molecular Devices) at absorbance of 450 nm.

B1: F846TC.14A2: anti-Gal3 antibody (antibody, V domains shown)
VH: QIQLVQSGPELKKPGETVKISCKASGYTFTNYGMNWVKQAPGKGLKWMGWINTYTGEPTYAGDLKGRFAFSLETSASTAYLQINNLKNEDTATYFCVRYTMDYWGQGTSVTVSS
VL: QAVVTQESALTTSPGETVTLTCRSSTGAVTTSNYANWVQEKPDHLFTGLIGGINNRVPGVPARFSGSLIGDKAALTITGAQTEDEAIYFCALWYSNHWVFGGGTKLTVL
Q: Which “binding to Gal3 Peptide 8” value ([1]; Peptide 8 (SEQ ID NO: 10)) does the source give for B1 here?
A: bind

Q: And the “binding to Gal3 Peptide 1” value [2]?
A: bind and bound

Q: And the “binding to Gal3 Peptide 7” value [2]?
A: bind and bound

B2: F846C.1F5: anti-Gal3 antibody (antibody, V domains shown)
VH: QIQLVQSGPELKKPGETVKISCKASGYTFTNYGMNWVKQAPGKGLKWMGWINTYTGEPSYADDFKGRFAFSLETSASTAYLQINNLKNEDMATYFCARWGGYDGDYYAMDYWGQGTSVTVSS
VL: NIMMTQSPSSLAVSAGEKVTMSCKSSQSVLYSSNQKNYLAWYQQKPGQSPKLLIYWASTRESGVPDRFTGSGSGTDFTLTISSVQPEDLAVYYCHQYLSSLTFGAGTKLELK
Q: B2 was tested. Which “binding to Gal3 Peptide 17” value ([1]; Peptide 17 (SEQ ID NO: 19)) did it give?
A: bind

Q: And the “binding to Gal3 Peptide 6” value [2]?
A: bind and bound

B3: 2D10.2B2: anti-Gal3 monoclonal antibody (antibody, V domains shown)
VH: QVQLQQSGPELVKPGASVKISCKASGYTFTDYYINWVKQRPGQGLEWIGWIYPGSNDTKYNEKFKGKATLTVDTSSSTAYMQLGSLTSEDSAVYFCANYFGCSGWFFDVWGTGTTVTVSS
VL: DIVMTQAAFSNPVTLGTSASISCRSSKSLLHSDGITYLYWYLQRPGQSPQLLIYRMSNLASGVPDRFSGSGSGTDFTLRISRVEAEDVGVYYCAQMIEFPLTFGAGTILELK
Q: How did the “epitope bin (competitive binding to Gal3)” value (human Gal3) turn out when B3 was run?
A: bin 3

Q: And the “binding to Gal3 Peptide 1” value [2]?
A: bound

Q: And the “binding to Gal3 Peptide 6” value [2]?
A: bind and bound

Q: What about the “binding to Gal3 Peptide 7” value [2] of the same molecule?
A: bound

B4: 4A11.2B5: anti-Gal3 monoclonal antibody (antibody, V domains shown)
VH: QVQLQQSGPELVKPGASVKISCKASGYSFTNYYIHWVKQRPGQGLEWIGWIYPGSGNTNYNEKFKGKATLTADTSSSTTNMQLSSLTSEDSAVYYCSTAPGGFDVWGSGTTVTVSS
VL: DIVMTQAAFSNPVTLGTSASISCRSSKSLLHSDGITYLYWYLQRPGQSPQLLIYRMSNLASGVPDRFSGSGSGTDFTLRISRVEAEDVGVYYCAQMLEFPLTFGAGTKLELK
Q: With B4 as the molecule, how does the “epitope bin (competitive binding to Gal3)” value (human Gal3) read?
A: bin 3

Q: And the “binding to Gal3 Peptide 6” value [2]?
A: bind and bound

B5: 12G5.D7: anti-Gal3 monoclonal antibody (antibody, V domains shown)
VH: QVQLKQSGAELVRPGASVKLSCKASGYTFTDYYINWVKQRPGQGLEWIARIYPGTGNTDYNEKFKGRATLTAEKSSSTAYMQLSSLTSEDSAVYFCARFAYYYGSGGYFDYWGHGTTLTVSS
VL: DILMTQSPSSMSVSLGDTVSITCHASQGINSNMGWLQQKPGKSFKGLIYHATNLEDGVPSRFSGSGSGADYSLTISSLESEDFADYYCVQYAQFPPTFGSGTKLEIK
Q: Which results are given for B5?
A: epitope bin (competitive binding to Gal3) (human Gal3): bin 10; Gal3-INSR blocking activity (in words) [3]: poorly block

B6: 13G4.2F8: anti-Gal3 monoclonal antibody (antibody, V domains shown)
VH: QVQLQQPGAELVKPGASVKLSCKASGYTFTSYWMHWVKQRPGQGLEWIGMIHPNSGSTDYNEKFKNKATLNVDKSSSTAYIQLSSLTSEDSAVYYCTRWGIYYYARDYWGQGTTLTVSS
VL: DIVMTQSQKFMSTSVGERVSITCKASQNVGTNVAWYQQKAGQSLELLIYGASNRHTGVPDRFTGSGSGTDFTLTITNVQSEDMTNYFCEQYSNFPLTFGAGTKLELK
Q: For B6, which “Gal3-INSR blocking activity (in words)” value [3] is on record?
A: poorly block

B7: 24D12.2H9: anti-Gal3 monoclonal antibody (antibody, V domains shown)
VH: QVQLKQSGPGLVQPSQSLSITCTVSGFSLTSYGVHWVRQAPGKGLEWLGVIWSGGSTDYNAAFMSRLSISKDNSKSQVFFKMNSLQADDTAIYYCAKSPDGYDVAWFGYWGQGTLVTVSA
VL: DIVMTQSHKFMSTSVGDRVSITCKASQDVRTAVAWYQQKPGQSPKLLIYWASTRHTGVPDRFTGSGSGTDFTLTLSNVQSEDLADYFCQQYSSYPWTFGGGTKLEIK
Q: Which “Gal3-INSR blocking activity (in words)” value [3] does the source give for B7 here?
A: poorly block
